Data taken from article PMC5511170, “Deviation of the typical AAA substrate-threading pore prevents fatal protein degradation in yeast Cdc48” (Scientific Reports, 2017).

T1: GST-Ufd2 (yeast (Saccharomyces cerevisiae), UniProt P54860 1-961)
T1 construct: Ufd2, E4 ubiquitin ligase, yeast, cloned in pGEX6P-1; Cloned in pGEX6P-1; source: E. coli BL21, purified (glutathione-sepharose)
T1 sequence (looked up): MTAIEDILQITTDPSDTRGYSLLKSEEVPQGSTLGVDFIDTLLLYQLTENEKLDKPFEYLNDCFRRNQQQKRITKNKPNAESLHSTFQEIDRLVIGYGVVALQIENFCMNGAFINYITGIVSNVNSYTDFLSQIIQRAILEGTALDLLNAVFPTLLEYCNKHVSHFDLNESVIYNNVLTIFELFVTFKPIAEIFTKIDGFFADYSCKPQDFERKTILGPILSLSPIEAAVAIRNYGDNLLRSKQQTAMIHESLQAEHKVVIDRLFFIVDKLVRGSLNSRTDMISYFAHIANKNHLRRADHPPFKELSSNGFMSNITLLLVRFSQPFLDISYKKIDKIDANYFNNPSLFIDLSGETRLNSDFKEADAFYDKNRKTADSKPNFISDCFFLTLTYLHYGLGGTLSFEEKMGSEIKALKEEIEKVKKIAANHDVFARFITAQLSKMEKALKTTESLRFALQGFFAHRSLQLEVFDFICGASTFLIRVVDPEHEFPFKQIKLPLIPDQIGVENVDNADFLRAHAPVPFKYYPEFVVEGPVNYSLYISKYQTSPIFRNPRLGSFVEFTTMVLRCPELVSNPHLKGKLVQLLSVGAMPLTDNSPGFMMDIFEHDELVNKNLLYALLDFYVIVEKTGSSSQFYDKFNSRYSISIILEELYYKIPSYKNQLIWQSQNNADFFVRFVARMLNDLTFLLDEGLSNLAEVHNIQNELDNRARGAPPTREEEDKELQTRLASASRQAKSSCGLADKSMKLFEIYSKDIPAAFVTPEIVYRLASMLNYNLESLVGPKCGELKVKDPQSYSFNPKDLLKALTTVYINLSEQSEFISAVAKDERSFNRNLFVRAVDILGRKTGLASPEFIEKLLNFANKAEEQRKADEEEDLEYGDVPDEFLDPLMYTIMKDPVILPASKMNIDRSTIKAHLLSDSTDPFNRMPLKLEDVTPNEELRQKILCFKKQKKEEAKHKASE


Molecular target: T1, GST-Ufd2
Test: pull-down; GST-Ufd2 (40 pmol) incubated with 20 pmol Cdc48 in 100 µL 20 mM Tris-HCl pH 7.4, 50 mM NaCl, 1 mM MgCl2, 5 mM β-mercaptoethanol, 20% glycerol, 10 min at 25 °C; then glutathione-sepharose 4B 30 min at room temperature; eluted with glutathione; immunoblot with anti-Cdc48 and anti-GST
Settings: both partners purified

binding result | Binder
binds | wild-type Cdc48 (N-terminally His-tagged) (natural protein, Saccharomyces cerevisiae, UniProt P25694 1-835, looked up, Cdc48, Saccharomyces cerevisiae, wild type, cloned in pET15b; Cloned in pET15b; also called WT; yeast Cdc48) MGEEHKPLLDASGVDPREEDKTATAILRRKKKDNMLLVDDAINDDNSVIAINSNTMDKLELFRGDTVLVKGKKRKDTVLIVLIDDELEDGACRINRVVRNNLRIRLGDLVTIHPCPDIKYATRISVLPIADTIEGITGNLFDVFLKPYFVEAYRPVRKGDHFVVRGGMRQVEFKVVDVEPEEYAVVAQDTIIHWEGEPINREDEENNMNEVGYDDIGGCRKQMAQIREMVELPLRHPQLFKAIGIKPPRGVLMYGPPGTGKTLMARAVANETGAFFFLINGPEVMSKMAGESESNLRKAFEEAEKNAPAIIFIDEIDSIAPKRDKTNGEVERRVVSQLLTLMDGMKARSNVVVIAATNRPNSIDPALRRFGRFDREVDIGIPDATGRLEVLRIHTKNMKLADDVDLEALAAETHGYVGADIASLCSEAAMQQIREKMDLIDLDEDEIDAEVLDSLGVTMDNFRFALGNSNPSALRETVVESVNVTWDDVGGLDEIKEELKETVEYPVLHPDQYTKFGLSPSKGVLFYGPPGTGKTLLAKAVATEVSANFISVKGPELLSMWYGESESNIRDIFDKARAAAPTVVFLDELDSIAKARGGSLGDAGGASDRVVNQLLTEMDGMNAKKNVFVIGATNRPDQIDPAILRPGRLDQLIYVPLPDENARLSILNAQLRKTPLEPGLELTAIAKATQGFSGADLLYIVQRAAKYAIKDSIEAHRQHEAEKEVKVEGEDVEMTDEGAKAEQEPEVDPVPYITKEHFAEAMKTAKRSVSDAELRRYEAYSQQMKASRGQFSNFNFNDAPLGTTATDNANSNNSAPSGAGAAFGSNAEEDDDLYS
binds | Cdc48 M288Y mutant (N-terminally His-tagged) (natural protein, Saccharomyces cerevisiae, UniProt P25694 1-835, looked up, Cdc48, Saccharomyces cerevisiae, with M288Y in the D1 pore loop, cloned in pET15b; Cloned in pET15b) MGEEHKPLLDASGVDPREEDKTATAILRRKKKDNMLLVDDAINDDNSVIAINSNTMDKLELFRGDTVLVKGKKRKDTVLIVLIDDELEDGACRINRVVRNNLRIRLGDLVTIHPCPDIKYATRISVLPIADTIEGITGNLFDVFLKPYFVEAYRPVRKGDHFVVRGGMRQVEFKVVDVEPEEYAVVAQDTIIHWEGEPINREDEENNMNEVGYDDIGGCRKQMAQIREMVELPLRHPQLFKAIGIKPPRGVLMYGPPGTGKTLMARAVANETGAFFFLINGPEVMSKYAGESESNLRKAFEEAEKNAPAIIFIDEIDSIAPKRDKTNGEVERRVVSQLLTLMDGMKARSNVVVIAATNRPNSIDPALRRFGRFDREVDIGIPDATGRLEVLRIHTKNMKLADDVDLEALAAETHGYVGADIASLCSEAAMQQIREKMDLIDLDEDEIDAEVLDSLGVTMDNFRFALGNSNPSALRETVVESVNVTWDDVGGLDEIKEELKETVEYPVLHPDQYTKFGLSPSKGVLFYGPPGTGKTLLAKAVATEVSANFISVKGPELLSMWYGESESNIRDIFDKARAAAPTVVFLDELDSIAKARGGSLGDAGGASDRVVNQLLTEMDGMNAKKNVFVIGATNRPDQIDPAILRPGRLDQLIYVPLPDENARLSILNAQLRKTPLEPGLELTAIAKATQGFSGADLLYIVQRAAKYAIKDSIEAHRQHEAEKEVKVEGEDVEMTDEGAKAEQEPEVDPVPYITKEHFAEAMKTAKRSVSDAELRRYEAYSQQMKASRGQFSNFNFNDAPLGTTATDNANSNNSAPSGAGAAFGSNAEEDDDLYS
